Test system: Escherichia coli TOP10
Experiment: shrunken log2 fold change of peptide-encoding DNA abundance (4.5 h post-induction vs induction); higher = less antimicrobial activity (less host growth inhibition)
Settings: time post-induction: 4.5 h; library: site-saturation at positions 5, 18, 19, 20
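Also: peptides expressed intracellularly from a pBAD plasmid library in pooled LB shake-flask culture, induced with 0.3% L-arabinose, DNA abundance read by NGS, three biological replicates, DESeq2 with apeglm shrinkage.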

Sequence	shrunken log2 fold change
RRIRLRPPRLPRPRPRPNSMPRP	-0.0473
RRIRLRPPRLPRPRPRPNTKPRP	-0.543
RRIRLRPPRLPRPRPRPNVNPRP	-0.28
RRIRLRPPRLPRPRPRPNYMPRP	-0.251
RRIRLRPPRLPRPRPRPNYPPRP	-0.156
RRIRLRPPRLPRPRPRPNYTPRP	-0.91
RRIRLRPPRLPRPRPRPPALPRP	0.696
RRIRLRPPRLPRPRPRPPCAPRP	0.457
RRIRLRPPRLPRPRPRPPDLPRP	0.169
RRIRLRPPRLPRPRPRPPDPPRP	0.584
RRIRLRPPRLPRPRPRPPDYPRP	-0.199
RRIRLRPPRLPRPRPRPPECPRP	-0.29
RRIRLRPPRLPRPRPRPPEHPRP	0.188
RRIRLRPPRLPRPRPRPPFMPRP	0.086
RRIRLRPPRLPRPRPRPPGEPRP	0.196
RRIRLRPPRLPRPRPRPPGRPRP	0.66
RRIRLRPPRLPRPRPRPPHCPRP	0.177
RRIRLRPPRLPRPRPRPPHMPRP	-0.0106
RRIRLRPPRLPRPRPRPPIEPRP	-0.424
RRIRLRPPRLPRPRPRPPIFPRP	-0.0913
RRIRLRPPRLPRPRPRPPIGPRP	0.142
RRIRLRPPRLPRPRPRPPLLPRP	0.158
RRIRLRPPRLPRPRPRPPLWPRP	0.447
RRIRLRPPRLPRPRPRPPNLPRP	-0.321
RRIRLRPPRLPRPRPRPPPMPRP	0.966

Sequence	shrunken log2 fold change
RRIRLRPPRLPRPRPRPPQRPRP	0.26
RRIRLRPPRLPRPRPRPPSCPRP	0.341
RRIRLRPPRLPRPRPRPPSLPRP	0.0267
RRIRLRPPRLPRPRPRPPVYPRP	0.0309
RRIRLRPPRLPRPRPRPPWDPRP	0.344
RRIRLRPPRLPRPRPRPPWEPRP	0.192
RRIRLRPPRLPRPRPRPPYKPRP	-0.292
RRIRLRPPRLPRPRPRPPYYPRP	-0.292
RRIRLRPPRLPRPRPRPQARPRP	0.169
RRIRLRPPRLPRPRPRPQCFPRP	-0.0127
RRIRLRPPRLPRPRPRPQCMPRP	0.0865
RRIRLRPPRLPRPRPRPQCPPRP	-0.266
RRIRLRPPRLPRPRPRPQGHPRP	0.137
RRIRLRPPRLPRPRPRPQGSPRP	-0.0921
RRIRLRPPRLPRPRPRPQHKPRP	-0.0846
RRIRLRPPRLPRPRPRPQHPPRP	-0.132
RRIRLRPPRLPRPRPRPQKCPRP	-0.222
RRIRLRPPRLPRPRPRPQKEPRP	0.0466
RRIRLRPPRLPRPRPRPQKKPRP	-0.176
RRIRLRPPRLPRPRPRPQKTPRP	-0.03
RRIRLRPPRLPRPRPRPQLKPRP	-0.0336
RRIRLRPPRLPRPRPRPQLWPRP	-0.195
RRIRLRPPRLPRPRPRPQMMPRP	-0.371
RRIRLRPPRLPRPRPRPQNFPRP	0.0254
RRIRLRPPRLPRPRPRPQNPPRP	-0.263

Sequence	shrunken log2 fold change
RRIRLRPPRLPRPRPRPQNRPRP	-0.231
RRIRLRPPRLPRPRPRPQQHPRP	-0.212
RRIRLRPPRLPRPRPRPQRCPRP	0.487
RRIRLRPPRLPRPRPRPQRKPRP	0.198
RRIRLRPPRLPRPRPRPQRQPRP	0.316
RRIRLRPPRLPRPRPRPQRTPRP	0.43
RRIRLRPPRLPRPRPRPQSFPRP	-0.0139
RRIRLRPPRLPRPRPRPQSMPRP	-0.197
RRIRLRPPRLPRPRPRPQSSPRP	-0.419
RRIRLRPPRLPRPRPRPQTLPRP	-0.0114
RRIRLRPPRLPRPRPRPQVIPRP	-0.136
RRIRLRPPRLPRPRPRPQVPPRP	-0.0408
RRIRLRPPRLPRPRPRPQWWPRP	0.491
RRIRLRPPRLPRPRPRPQYIPRP	-0.189
RRIRLRPPRLPRPRPRPRERPRP	0.612
RRIRLRPPRLPRPRPRPRHCPRP	0.232
RRIRLRPPRLPRPRPRPRHFPRP	-0.131
RRIRLRPPRLPRPRPRPRHIPRP	1.19
RRIRLRPPRLPRPRPRPRHSPRP	0.0207
RRIRLRPPRLPRPRPRPRKKPRP	0.355
RRIRLRPPRLPRPRPRPRKLPRP	-0.0264
RRIRLRPPRLPRPRPRPRMCPRP	-0.0246
RRIRLRPPRLPRPRPRPRMHPRP	0.136
RRIRLRPPRLPRPRPRPRMPPRP	0.352
RRIRLRPPRLPRPRPRPRMQPRP	-0.0604

Sequence	shrunken log2 fold change
RRIRLRPPRLPRPRPRPRMSPRP	-1
RRIRLRPPRLPRPRPRPRQTPRP	1.27
RRIRLRPPRLPRPRPRPRSMPRP	-0.326
RRIRLRPPRLPRPRPRPRTMPRP	-0.0102
RRIRLRPPRLPRPRPRPRTWPRP	0.111
RRIRLRPPRLPRPRPRPRWPPRP	0.716
RRIRLRPPRLPRPRPRPSANPRP	-0.0303
RRIRLRPPRLPRPRPRPSEAPRP	0.12
RRIRLRPPRLPRPRPRPSESPRP	-0.244
RRIRLRPPRLPRPRPRPSGEPRP	0.0911
RRIRLRPPRLPRPRPRPSGIPRP	-0.267
RRIRLRPPRLPRPRPRPSGKPRP	0.19
RRIRLRPPRLPRPRPRPSGLPRP	-0.429
RRIRLRPPRLPRPRPRPSHDPRP	-0.385
RRIRLRPPRLPRPRPRPSIEPRP	-0.602
RRIRLRPPRLPRPRPRPSKQPRP	-0.572
RRIRLRPPRLPRPRPRPSKWPRP	-0.348
RRIRLRPPRLPRPRPRPSMWPRP	0.0718
RRIRLRPPRLPRPRPRPSNKPRP	-0.646
RRIRLRPPRLPRPRPRPSNQPRP	-1.04
RRIRLRPPRLPRPRPRPSPPPRP	0.198
RRIRLRPPRLPRPRPRPSQNPRP	-0.278
RRIRLRPPRLPRPRPRPSQQPRP	-0.0225
RRIRLRPPRLPRPRPRPSQVPRP	-0.573
RRIRLRPPRLPRPRPRPSSGPRP	0.131

Sequence	shrunken log2 fold change
RRIRLRPPRLPRPRPRPSSSPRP	0.172
RRIRLRPPRLPRPRPRPSTIPRP	-0.246
RRIRLRPPRLPRPRPRPSTQPRP	-0.337
RRIRLRPPRLPRPRPRPSVKPRP	-0.0487
RRIRLRPPRLPRPRPRPSYCPRP	-0.413
RRIRLRPPRLPRPRPRPSYRPRP	-0.242
RRIRLRPPRLPRPRPRPSYYPRP	-0.963
RRIRLRPPRLPRPRPRPTAIPRP	-0.17
RRIRLRPPRLPRPRPRPTASPRP	0.0857
RRIRLRPPRLPRPRPRPTCKPRP	-0.0465
RRIRLRPPRLPRPRPRPTDAPRP	0.193
RRIRLRPPRLPRPRPRPTDEPRP	-0.111
RRIRLRPPRLPRPRPRPTDGPRP	-0.0875
RRIRLRPPRLPRPRPRPTEYPRP	-0.0401
RRIRLRPPRLPRPRPRPTFQPRP	-0.098
RRIRLRPPRLPRPRPRPTHKPRP	0.38
RRIRLRPPRLPRPRPRPTIPPRP	0.0895
RRIRLRPPRLPRPRPRPTNHPRP	-0.174
RRIRLRPPRLPRPRPRPTQIPRP	0.14
RRIRLRPPRLPRPRPRPTSEPRP	-0.0829
RRIRLRPPRLPRPRPRPTSFPRP	-0.0182
RRIRLRPPRLPRPRPRPTSSPRP	-0.178
RRIRLRPPRLPRPRPRPTTNPRP	-0.0886
RRIRLRPPRLPRPRPRPTTWPRP	0.0965
RRIRLRPPRLPRPRPRPTTYPRP	-0.182

Sequence	shrunken log2 fold change
RRIRLRPPRLPRPRPRPTWDPRP	0.183
RRIRLRPPRLPRPRPRPTWHPRP	0.174
RRIRLRPPRLPRPRPRPTWIPRP	0.0209
RRIRLRPPRLPRPRPRPTYKPRP	-0.244
RRIRLRPPRLPRPRPRPTYPPRP	0.0515
RRIRLRPPRLPRPRPRPTYVPRP	-0.591
RRIRLRPPRLPRPRPRPVALPRP	0.0145
RRIRLRPPRLPRPRPRPVAMPRP	0.0144
RRIRLRPPRLPRPRPRPVCQPRP	0.155
RRIRLRPPRLPRPRPRPVDRPRP	0.584
RRIRLRPPRLPRPRPRPVDVPRP	0.0939
RRIRLRPPRLPRPRPRPVEHPRP	-0.174
RRIRLRPPRLPRPRPRPVERPRP	-0.0146
RRIRLRPPRLPRPRPRPVGCPRP	0.226
RRIRLRPPRLPRPRPRPVGNPRP	0.0885
RRIRLRPPRLPRPRPRPVITPRP	-0.372
RRIRLRPPRLPRPRPRPVLVPRP	-0.161
RRIRLRPPRLPRPRPRPVPNPRP	0.0119
RRIRLRPPRLPRPRPRPVPWPRP	0.0255
RRIRLRPPRLPRPRPRPVQGPRP	-0.01
RRIRLRPPRLPRPRPRPVREPRP	0.185
RRIRLRPPRLPRPRPRPVSEPRP	0.172
RRIRLRPPRLPRPRPRPVSPPRP	-0.00493
RRIRLRPPRLPRPRPRPVTAPRP	0.213
RRIRLRPPRLPRPRPRPVTRPRP	0.0329

From the supplement of paper PMC9112550, “Optimization of the antimicrobial peptide Bac7 by deep mutational scanning” (BMC Biology, 2022)
